Results published in patent publication US20140271602, “NUCLEOTIDE-SPECIFIC RECOGNITION SEQUENCES FOR DESIGNER TAL EFFECTORS” (THE BROAD INSTITUTE INC., published 2014).

Experiments:
[1] = system: AAVS1 right TALEN (Xanthomonas (engineered)); experiment: cell_activity; conditions: Surveyor assay, with left TALEN, 293FT
[2] = system: AAVS1 left TALEN (Xanthomonas (engineered)); experiment: cell_activity; conditions: Surveyor assay, with right TALEN, 293FT
[3] = system: SOX2 TALE-TF (Xanthomonas (engineered)); experiment: cell_activity; conditions: endogenous SOX2
[4] = system: NH-TALE (RVD screening) (Xanthomonas (engineered)); experiment: cell_activity; conditions: luciferase reporter
[5] = system: NN-TALE (RVD screening) (Xanthomonas (engineered)); experiment: cell_activity; conditions: luciferase reporter
[6] = target: T1, TALE2-NN (CACNA1C site 2 activator) (Xanthomonas (engineered), UniProt P14727 SEQ:1-983); experiment: cell_activity; HEK 293FT, endogenous CACNA1C mRNA; conditions: tags: VP64, 2A-GFP
T1 chain: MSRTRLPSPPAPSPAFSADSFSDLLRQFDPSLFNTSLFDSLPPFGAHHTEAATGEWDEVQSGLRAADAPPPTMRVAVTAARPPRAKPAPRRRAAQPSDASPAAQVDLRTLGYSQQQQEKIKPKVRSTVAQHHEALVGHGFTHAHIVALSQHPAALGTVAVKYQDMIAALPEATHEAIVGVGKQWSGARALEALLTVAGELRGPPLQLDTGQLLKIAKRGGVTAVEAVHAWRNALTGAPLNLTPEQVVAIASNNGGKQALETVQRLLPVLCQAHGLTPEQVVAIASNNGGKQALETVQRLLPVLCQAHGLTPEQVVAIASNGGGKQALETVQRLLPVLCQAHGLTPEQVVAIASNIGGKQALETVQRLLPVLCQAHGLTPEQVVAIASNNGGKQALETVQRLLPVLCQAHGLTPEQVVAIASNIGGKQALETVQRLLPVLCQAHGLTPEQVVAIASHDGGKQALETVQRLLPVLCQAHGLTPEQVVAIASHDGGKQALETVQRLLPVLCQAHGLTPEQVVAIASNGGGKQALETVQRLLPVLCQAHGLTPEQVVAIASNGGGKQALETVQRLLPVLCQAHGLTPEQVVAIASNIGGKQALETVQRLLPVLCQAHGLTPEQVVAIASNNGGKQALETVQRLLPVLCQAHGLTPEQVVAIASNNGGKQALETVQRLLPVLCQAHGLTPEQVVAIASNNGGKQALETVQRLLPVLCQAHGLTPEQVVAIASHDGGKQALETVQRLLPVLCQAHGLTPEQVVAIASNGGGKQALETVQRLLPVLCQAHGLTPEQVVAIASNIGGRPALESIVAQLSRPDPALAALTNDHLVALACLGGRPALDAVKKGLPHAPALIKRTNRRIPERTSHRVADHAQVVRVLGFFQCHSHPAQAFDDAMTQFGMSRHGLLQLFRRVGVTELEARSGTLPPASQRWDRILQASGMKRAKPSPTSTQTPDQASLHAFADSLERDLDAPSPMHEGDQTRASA
Experimental: Changes in mRNA are measured using qRT-PCR as described previously. VP64, VP64 transcription activation domain. All results are collected from three independent experiments in HEK 293FT cells. Error bars indicate s.e.m.; n=3. FIG. 19(b) discloses SEQ ID NOS 63 and 62, respectively, in order of appearance.
Using qRT-PCR, the performance of NN, NK, NH, and HN for targeting endogenous genomic sequences was further compared. The ability of NN-, NK-, NH-, and HN-TALEs to activate CACNA1C transcription by targeting the two endogenous target sites was tested (FIG. 19b). […] Both TALE 1-NH and TALE2-NH were able to achieve similar levels of transcriptional activation as TALE1-NN and TALE2-NN (˜5 and ˜3 folds of activation for targets 1 and 2, respectively) and twice more than TALE-NK and TALE2-NK (FIG. 19b). […] On the other hand, based on all the results from specificity and endogenous activity tests, the RVD NH seems to be a more suitable substitute for NN than NK when higher targeting specificity is desired, as it also provides higher levels of biological activity. Further testing using additional endogenous genomic targets helps validate the broad utility of NH as a highly specific G-targeting RVD.
For the endogenous gene transcriptional level assay to test the biological activities of TALE activators and TALE repressors, HEK 293FT cells were seeded into 24-well plates. […]

[7] = target: T2, TALE2-NH (CACNA1C site 2 activator) (Xanthomonas (engineered), UniProt P14727 SEQ:1-983); experiment: cell_activity; HEK 293FT, endogenous mRNA; reporter 2.7x that of NK; conditions: tags: VP64, 2A-GFP
T2 chain: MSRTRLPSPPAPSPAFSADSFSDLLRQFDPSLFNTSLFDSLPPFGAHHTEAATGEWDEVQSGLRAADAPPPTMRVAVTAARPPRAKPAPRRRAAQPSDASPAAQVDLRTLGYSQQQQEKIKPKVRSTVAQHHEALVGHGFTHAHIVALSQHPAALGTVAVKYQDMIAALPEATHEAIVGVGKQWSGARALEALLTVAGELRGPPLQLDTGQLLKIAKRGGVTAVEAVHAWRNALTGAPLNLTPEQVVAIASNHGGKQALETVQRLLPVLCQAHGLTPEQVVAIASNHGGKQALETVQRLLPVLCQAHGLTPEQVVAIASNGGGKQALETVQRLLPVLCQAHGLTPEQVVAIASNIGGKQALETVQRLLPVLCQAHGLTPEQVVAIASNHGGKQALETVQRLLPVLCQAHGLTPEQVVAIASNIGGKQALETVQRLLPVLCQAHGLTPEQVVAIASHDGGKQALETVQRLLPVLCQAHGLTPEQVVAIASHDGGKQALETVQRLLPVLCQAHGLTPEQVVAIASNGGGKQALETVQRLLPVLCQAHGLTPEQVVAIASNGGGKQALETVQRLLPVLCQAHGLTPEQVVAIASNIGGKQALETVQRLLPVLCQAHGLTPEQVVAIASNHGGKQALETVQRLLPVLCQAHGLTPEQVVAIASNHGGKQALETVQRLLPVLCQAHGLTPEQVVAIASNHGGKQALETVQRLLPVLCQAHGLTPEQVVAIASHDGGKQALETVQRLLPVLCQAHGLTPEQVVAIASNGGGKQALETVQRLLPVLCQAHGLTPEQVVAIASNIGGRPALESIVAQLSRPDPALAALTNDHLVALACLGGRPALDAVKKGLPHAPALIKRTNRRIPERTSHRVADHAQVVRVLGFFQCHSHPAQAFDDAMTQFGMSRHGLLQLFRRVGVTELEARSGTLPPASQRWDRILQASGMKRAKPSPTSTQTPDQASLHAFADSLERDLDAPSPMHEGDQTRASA

In the case of “GTCCTAACCACTGTCTTT (double strand) [AAVS1 right TALEN site]”, the activity (% cleavage (pair)) [1] is reported as under 3.6.

With “TGTCCCCTCCACCCCACA (double strand) [AAVS1 left TALEN site]” the activity (% cleavage (pair)) [2] was under 3.6.

SOX2 TALE-TF site showed an activity (fold activation) [3] of under 5.

For “TTCTTGGTTATAAC (double strand) [RVD screen G-reporter]”, the binding signal (G- to A-reporter activation ratio) [4] was 16.4 and the binding signal (G- to A-reporter activation ratio) [5] was 3.5.

B1: CACNA1C site 2 (dsDNA)
DNA 1: TGGTAGACCTTAGGGCTA
DNA 2: TAGCCCTAAGGTCTACCA
B1 was tested, and the activity [6] was about 3 fold activation and the activity [7] was about 3 fold activation.
